Measured values reported in the supplement of paper PMC10567573.

B1: SNX8 (parent)
chain: VVLKLFLSFSGSDVQNKLKESAQC
B2: ZBED2 (parent)
chain: RAGHHPNQYATCRLCGRQVSRGPG

Variants of: B1
Assay: protein stability index of a GFP-peptide fusion (GPS, HEK-293T) (PSI 1-6); higher = more stable
Details: c terminus: a fixed tail appended
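Note: lentivirally expressed fusions sorted by FACS into six bins by GFP to DsRed ratio, PSI derived from sequencing read proportions per bin multiplied by bin number.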

| Variant | protein stability index |
| --- | --- |
| VVLKLFLSFSGSDVQNKLKEKAQC [S21K] | 2.25 |
| VVLKLFLSFSGSDVQNKLKEMAQC [S21M] | 2.03 |
| VVLKLFLSFSGSDVQNKLKEDAQC [S21D] | 1.56 |
| VVLKLFLSFSGSDVQNKLKEVAQC [S21V] | 2.46 |
| VVLKLFLSFSGSDVQNKLKEFAQC [S21F] | 1.88 |
| VVLKLFLSFSGSDVQNKLKENAQC [S21N] | 2.55 |
| VVLKLFLSFSGSDVQNKLKEYAQC [S21Y] | 2.66 |
| VVLKLFLSFSGSDVQNKLKEWAQC [S21W] | 2.66 |
| VVLKLFLSFSGSDVQNKLRESAQC [K19R] | 2.25 |
| VVLKLFLSFSGSDVQNKLKESAQV [C24V] | 2.91 |
| VVLKLFLSFSGSDVQNKLKESAQL [C24L] | 5.49 |
| VVLKLFLSFSGSDVQNKLKESAQY [C24Y] | 3.1 |
| VVLKLFLSFSGSDVQNKLKESAQD [C24D] | 1.9 |
| VVLKLFLSFSGSDVQNKLKESAQP [C24P] | 3.78 |
| VVLKLFLSFSGSDVQNKLKESAQS [C24S] | 3.35 |
| VVLKLFLSFSGSDVQNKLKESAQW [C24W] | 1.84 |
| VVLKLFLSFSGSDVQNKLKESAQH [C24H] | 2.17 |
| VVLKLFLSFSGSDVQNKLKESAQN [C24N] | 2.99 |
| VVLKLFLSFSGSDVQNKLKESAQF [C24F] | 4.02 |
| VVLKLFLSFSGSDVQNKLKLSAQC [E20L] | 1.89 |
| VVLKLFLSFSGSDVQNKLKYSAQC [E20Y] | 3.73 |
| VVLKLFLSFSGSDVQNKLKMSAQC [E20M] | 2.13 |
| VVLKLFLSFSGSDVQNKLKCSAQC [E20C] | 3.61 |
| VVLKLFLSFSGSDVQNKLKNSAQC [E20N] | 3.6 |
| VVLKLFLSFSGSDVQNKLKASAQC [E20A] | 2.89 |

| Variant | protein stability index |
| --- | --- |
| VVLKLFLSFSGSDVQNKLKFSAQC [E20F] | 3.18 |
| VVLKLFLSFSGSDVQNKLKSSAQC [E20S] | 3.97 |
| VVLKLFLSFSGSDVQNKLKDSAQC [E20D] | 3.55 |
| VVLKLFLSFSGSDVQNKLKQSAQC [E20Q] | 2.37 |
| VVLKLFLSFSGSDVQNKLKESFQC [A22F] | 3.23 |
| VVLKLFLSFSGSDVQNKLKESWQC [A22W] | 3.87 |
| VVLKLFLSFSGSDVQNKLKESGQC [A22G] | 3.13 |
| VVLKLFLSFSGSDVQNKLKESYQC [A22Y] | 1.93 |
| VVLKLFLSFSGSDVQNKLKESCQC [A22C] | 2.05 |
| VVLKLFLSFSGSDVQNKLKESDQC [A22D] | 4.82 |
| VVLKLFLSFSGSDVQNKLKESKQC [A22K] | 2.18 |
| VVLKLFLSFSGSDVQNKLKESTQC [A22T] | 1.76 |
| VVLKLFLSFSGSDVQNKLKESEQC [A22E] | 3.99 |
| VVLKLFLSFSGSDVQNKLKESMQC [A22M] | 3.48 |
| VVLKLFLSFSGSDVQNKLKESACC [Q23C] | 3.1 |
| VVLKLFLSFSGSDVQNKLKESAFC [Q23F] | 1.71 |
| VVLKLFLSFSGSDVQNKLKESALC [Q23L] | 3.31 |
| VVLKLFLSFSGSDVQNKLKESADC [Q23D] | 2.27 |
| VVLKLFLSFSGSDVQNKLKESAKC [Q23K] | 2.59 |
| VVLKLFLSFSGSDVQNKLKESASC [Q23S] | 1.46 |
| VVLKLFLSFSGSDVQNKLKESAYC [Q23Y] | 2.52 |
| VVLKLFLSFSGSDVQNKLKESAIC [Q23I] | 3.23 |
| VVLKLFLSFSGSDVQNKLKESARC [Q23R] | 2.8 |
| VVLKLFLSFSGSDVQNKLKESATC [Q23T] | 2.48 |
| VVLKLFLSFSGSDVQNKLKESAAC [Q23A] | 3.04 |

Variants of: B2
Assay: as above
Details: c terminus: a fixed tail appended

| Variant | protein stability index |
| --- | --- |
| NAGHHPNQYATCRLCGRQVSRGPG [R1N] | 2.85 |
| HAGHHPNQYATCRLCGRQVSRGPG [R1H] | 2.13 |
| KAGHHPNQYATCRLCGRQVSRGPG [R1K] | 1.68 |
| DAGHHPNQYATCRLCGRQVSRGPG [R1D] | 2.57 |
| CAGHHPNQYATCRLCGRQVSRGPG [R1C] | 3.55 |
| EAGHHPNQYATCRLCGRQVSRGPG [R1E] | 2.53 |
| QAGHHPNQYATCRLCGRQVSRGPG [R1Q] | 1.5 |
| MAGHHPNQYATCRLCGRQVSRGPG [R1M] | 1.79 |
| TAGHHPNQYATCRLCGRQVSRGPG [R1T] | 2.07 |
| SAGHHPNQYATCRLCGRQVSRGPG [R1S] | 1.86 |
| IAGHHPNQYATCRLCGRQVSRGPG [R1I] | 2.13 |
| VAGHHPNQYATCRLCGRQVSRGPG [R1V] | 1.33 |
| PAGHHPNQYATCRLCGRQVSRGPG [R1P] | 1.04 |
| LAGHHPNQYATCRLCGRQVSRGPG [R1L] | 1.78 |
| RADHHPNQYATCRLCGRQVSRGPG [G3D] | 2.58 |
| RACHHPNQYATCRLCGRQVSRGPG [G3C] | 4.01 |
| RAQHHPNQYATCRLCGRQVSRGPG [G3Q] | 1.75 |
| RATHHPNQYATCRLCGRQVSRGPG [G3T] | 2.19 |
| RALHHPNQYATCRLCGRQVSRGPG [G3L] | 2.27 |
| RAWHHPNQYATCRLCGRQVSRGPG [G3W] | 3.31 |
| RARHHPNQYATCRLCGRQVSRGPG [G3R] | 2.09 |
| RAAHHPNQYATCRLCGRQVSRGPG [G3A] | 2.29 |

| Variant | protein stability index |
| --- | --- |
| RAMHHPNQYATCRLCGRQVSRGPG [G3M] | 2.52 |
| RAIHHPNQYATCRLCGRQVSRGPG [G3I] | 1.55 |
| RAHHHPNQYATCRLCGRQVSRGPG [G3H] | 1.25 |
| RAEHHPNQYATCRLCGRQVSRGPG [G3E] | 2.06 |
| RAKHHPNQYATCRLCGRQVSRGPG [G3K] | 2.66 |
| RAVHHPNQYATCRLCGRQVSRGPG [G3V] | 1.64 |
| RASHHPNQYATCRLCGRQVSRGPG [G3S] | 1.57 |
| RDGHHPNQYATCRLCGRQVSRGPG [A2D] | 2.08 |
| RYGHHPNQYATCRLCGRQVSRGPG [A2Y] | 2.04 |
| RLGHHPNQYATCRLCGRQVSRGPG [A2L] | 2.19 |
| RMGHHPNQYATCRLCGRQVSRGPG [A2M] | 1.97 |
| RGGHHPNQYATCRLCGRQVSRGPG [A2G] | 2.1 |
| RIGHHPNQYATCRLCGRQVSRGPG [A2I] | 2.15 |
| RKGHHPNQYATCRLCGRQVSRGPG [A2K] | 1.54 |
| RQGHHPNQYATCRLCGRQVSRGPG [A2Q] | 1.4 |
| RFGHHPNQYATCRLCGRQVSRGPG [A2F] | 2.36 |
| RHGHHPNQYATCRLCGRQVSRGPG [A2H] | 1.78 |
| REGHHPNQYATCRLCGRQVSRGPG [A2E] | 2.33 |
| RPGHHPNQYATCRLCGRQVSRGPG [A2P] | 1.73 |
| RSGHHPNQYATCRLCGRQVSRGPG [A2S] | 2.04 |
| RNGHHPNQYATCRLCGRQVSRGPG [A2N] | 2.11 |
| RAGAHPNQYATCRLCGRQVSRGPG [H4A] | 2.76 |
